Patent US20100081612A1 (GENERAL HOSPITAL, published 2010)
Where no end group is shown, it is not given here. [ ]: non-standard residue; d: D form. Cha = N[C@@H](CC1CCCCC1)C(=O)O

T1: wild-type human PTHR (human, UniProt Q03431 27-593)
T1 construct: whole, on cells; also called PTHR-WT; intact PTHR
T1 sequence (looked up): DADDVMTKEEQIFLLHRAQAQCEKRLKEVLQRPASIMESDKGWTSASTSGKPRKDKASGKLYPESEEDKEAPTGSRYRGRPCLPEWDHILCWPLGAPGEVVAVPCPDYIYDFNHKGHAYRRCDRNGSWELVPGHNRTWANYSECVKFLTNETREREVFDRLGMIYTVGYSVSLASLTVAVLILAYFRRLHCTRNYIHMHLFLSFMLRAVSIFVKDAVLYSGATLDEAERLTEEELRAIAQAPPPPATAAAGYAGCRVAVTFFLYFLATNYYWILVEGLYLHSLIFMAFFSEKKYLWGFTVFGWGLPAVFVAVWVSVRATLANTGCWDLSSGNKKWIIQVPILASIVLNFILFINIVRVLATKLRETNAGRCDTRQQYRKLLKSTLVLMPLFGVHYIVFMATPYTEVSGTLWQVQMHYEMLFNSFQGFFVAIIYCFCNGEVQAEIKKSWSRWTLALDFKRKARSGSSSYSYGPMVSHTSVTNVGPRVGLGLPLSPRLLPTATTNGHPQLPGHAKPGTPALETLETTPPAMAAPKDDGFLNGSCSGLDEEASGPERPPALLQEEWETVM


Key:
wild-type human PTHR [1] = target: T1, wild-type human PTHR; assay: competition binding, HKRK-B7 cells, 125I-PTH(1-34) tracer
wild-type human PTHR [2] = target: T1, wild-type human PTHR; assay: as above; remark: listed apart in the source
Experimental: Receptor binding—Binding to the wild-type human PTHR in intact HKRK-B7 cells and ROS 17/2.8 cells was assessed using ¹²⁵I-PTH(1-34) as a tracer radioligand, as described (Shimizu, M., (2001) Endocrinology 142:3068-3074). In brief, the cells in 24-well plates (about 500,000 cells per well) were incubated in binding buffer containing radioligand (about 100,000 cpm per well) with or without unlabeled peptide ligand (3×10⁻⁹ to 1×10⁻⁵ M) for four hours at 15° C. The binding mixture was then removed by aspiration, the cells were rinsed three times with binding buffer, lysed in 1 M NaOH, and the entire lysate was counted for gamma-irradiation in a gamma counter. Binding to PTHR-delNt in COS-7 cell membranes was assessed in 96-well, vacuum filtration plates (Multiscreen-Durapore HV, […], Millipore Corp., Millford, Mass.) using ¹²⁵I-[Aib^{1,3},M]PTH(1-15)NH₂ as a tracer radioligand, as described (Dean, T., (2006) Mol Endocrinol 20:931-942). In brief, cell membranes (20 μg/well) were incubated in membrane binding buffer containing radioligand (30,000 cpm/well) with or without unlabeled peptide ligand (3×10⁻⁹ to 1×10⁻⁵ M) for 90 minutes at 21° C. The plates were then subject to rapid vacuum filtration, the filters were washed once with buffer, detached from the plate and counted for gamma-irradiation in a gamma counter. Non-specific binding was defined as the binding observed in the presence of 1×10⁻⁶ M PTH(1-31)NH₂ for HKRK-B7 and ROS 17/2.8 cells, and 1×10⁻⁶ M [Aib^{1,3},M]PTH(1-15)NH₂ for PTHR-delNt. Specifically bound radioactivity was calculated as a percentage of the radioactivity specifically bound in the absence of competing ligand.
Cyclohexylalanine and glutamate substitutions were introduced into [Ala¹,Arg¹⁹]hPTH(1-31)NH₂. The helical residue values were calculated from [θ]₂₂₂, the mean-residue elipticities observed in the CD spectra at 222 nm. Competition binding studies were performed in intact HKRK-B7 cells stably transfected with the hPTHR using ¹²⁵I-[Nle^{8,21},Tyr³⁴]rPTH(1-34)NH ₂ tracer radioligand, and in membranes prepared from COS-7 cells transiently transfected with hPTHR-delNt and a negative-dominant Gαs using ¹²⁵I-[Aib^{1,3},Nle⁸,Gln¹⁰,Har¹¹,Ala¹²,Trp¹⁴,Tyr¹⁵]rPTH(1-15)NH₂ tracer radioligand. Binding values (nM) are means (+/−s.e.m.) of data from the number of experiments indicated (n).

PTHR-delNt (human) = PTHR-delNt (human) (UniProt Q03431); assay: competition binding, COS-7 membranes, 125I-[Aib1,3,M]PTH(1-15) tracer

Binder	fold change in binding affinity vs [Ala^1,Arg^19]PTH(1-31)NH2 (wild-type human PTHR [1])	IC50 (wild-type human PTHR [2])	IC50 (PTHR-delNt (human))	fold change in binding affinity vs [Ala^1,Arg^19]PTH(1-31)NH2 (PTHR-delNt (human))
AVSEIQLMHNLGKHLNSM[Cha]RVEWLRKKLQDV-NH2 (N-terminus assumed; SMILES CC[C@H](C)[C@H](NC(=O)[C@H](CCC(=O)O)NC(=O)[C@H](CO)NC(=O)[C@@H](NC(=O)[C@H](C)N)C(C)C)C(=O)N[C@@H](CCC(N)=O)C(=O)N[C@@H](CC(C)C)C(=O)N[C@@H](CCSC)C(=O)N[C@@H](Cc1c[nH]cn1)C(=O)N[C@@H](CC(N)=O)C(=O)N[C@@H](CC(C)C)C(=O)NCC(=O)N[C@@H](CCCCN)C(=O)N[C@@H](Cc1c[nH]cn1)C(=O)N[C@@H](CC(C)C)C(=O)N[C@@H](CC(N)=O)C(=O)N[C@@H](CO)C(=O)N[C@@H](CCSC)C(=O)N[C@@H](CC1CCCCC1)C(=O)N[C@@H](CCCNC(=N)N)C(=O)N[C@H](C(=O)N[C@@H](CCC(=O)O)C(=O)N[C@@H](Cc1c[nH]c2ccccc12)C(=O)N[C@@H](CC(C)C)C(=O)N[C@@H](CCCNC(=N)N)C(=O)N[C@@H](CCCCN)C(=O)N[C@@H](CCCCN)C(=O)N[C@@H](CC(C)C)C(=O)N[C@@H](CCC(N)=O)C(=O)N[C@@H](CC(=O)O)C(=O)N[C@H](C(N)=O)C(C)C)C(C)C) [[Ala^1,Arg^19]hPTH(1-31)NH2 Arg^19→Cha]	≤ 6 fold	233 nM	780 nM	< 3 fold
AVSEIQLMHNLGKHLNSMRRVEWLRK[Cha]LQDV-NH2 (N-terminus assumed; SMILES CC[C@H](C)[C@H](NC(=O)[C@H](CCC(=O)O)NC(=O)[C@H](CO)NC(=O)[C@@H](NC(=O)[C@H](C)N)C(C)C)C(=O)N[C@@H](CCC(N)=O)C(=O)N[C@@H](CC(C)C)C(=O)N[C@@H](CCSC)C(=O)N[C@@H](Cc1c[nH]cn1)C(=O)N[C@@H](CC(N)=O)C(=O)N[C@@H](CC(C)C)C(=O)NCC(=O)N[C@@H](CCCCN)C(=O)N[C@@H](Cc1c[nH]cn1)C(=O)N[C@@H](CC(C)C)C(=O)N[C@@H](CC(N)=O)C(=O)N[C@@H](CO)C(=O)N[C@@H](CCSC)C(=O)N[C@@H](CCCNC(=N)N)C(=O)N[C@@H](CCCNC(=N)N)C(=O)N[C@H](C(=O)N[C@@H](CCC(=O)O)C(=O)N[C@@H](Cc1c[nH]c2ccccc12)C(=O)N[C@@H](CC(C)C)C(=O)N[C@@H](CCCNC(=N)N)C(=O)N[C@@H](CCCCN)C(=O)N[C@@H](CC1CCCCC1)C(=O)N[C@@H](CC(C)C)C(=O)N[C@@H](CCC(N)=O)C(=O)N[C@@H](CC(=O)O)C(=O)N[C@H](C(N)=O)C(C)C)C(C)C, also called Cha^27 analog) [[Ala^1,Arg^19]hPTH(1-31)NH2 Lys^27→Cha]	≤ 6 fold	91 nM	629 nM	< 3 fold

Binders with a lower IC50 (wild-type human PTHR [2]), results first:

fold change in binding affinity vs [Ala^1,Arg^19]PTH(1-31)NH2 (wild-type human PTHR [1])	IC50 (wild-type human PTHR [2])	IC50 (PTHR-delNt (human))	fold change in binding affinity vs [Ala^1,Arg^19]PTH(1-31)NH2 (PTHR-delNt (human))	Binder
≤ 6 fold	87 nM	408 nM	< 3 fold	AVSEIQLMHNLGKHLNS[Cha]RRVEWLRKKLQDV-NH2 (N-terminus assumed; SMILES CC[C@H](C)[C@H](NC(=O)[C@H](CCC(=O)O)NC(=O)[C@H](CO)NC(=O)[C@@H](NC(=O)[C@H](C)N)C(C)C)C(=O)N[C@@H](CCC(N)=O)C(=O)N[C@@H](CC(C)C)C(=O)N[C@@H](CCSC)C(=O)N[C@@H](Cc1c[nH]cn1)C(=O)N[C@@H](CC(N)=O)C(=O)N[C@@H](CC(C)C)C(=O)NCC(=O)N[C@@H](CCCCN)C(=O)N[C@@H](Cc1c[nH]cn1)C(=O)N[C@@H](CC(C)C)C(=O)N[C@@H](CC(N)=O)C(=O)N[C@@H](CO)C(=O)N[C@@H](CC1CCCCC1)C(=O)N[C@@H](CCCNC(=N)N)C(=O)N[C@@H](CCCNC(=N)N)C(=O)N[C@H](C(=O)N[C@@H](CCC(=O)O)C(=O)N[C@@H](Cc1c[nH]c2ccccc12)C(=O)N[C@@H](CC(C)C)C(=O)N[C@@H](CCCNC(=N)N)C(=O)N[C@@H](CCCCN)C(=O)N[C@@H](CCCCN)C(=O)N[C@@H](CC(C)C)C(=O)N[C@@H](CCC(N)=O)C(=O)N[C@@H](CC(=O)O)C(=O)N[C@H](C(N)=O)C(C)C)C(C)C) [[Ala^1,Arg^19]hPTH(1-31)NH2 Met^18→Cha]
≤ 6 fold	75 nM	126 nM	< 3 fold	AVSEIQLMHNLGKHLNSMRRV[Cha]WLRKKLQDV-NH2 (N-terminus assumed; SMILES CC[C@H](C)[C@H](NC(=O)[C@H](CCC(=O)O)NC(=O)[C@H](CO)NC(=O)[C@@H](NC(=O)[C@H](C)N)C(C)C)C(=O)N[C@@H](CCC(N)=O)C(=O)N[C@@H](CC(C)C)C(=O)N[C@@H](CCSC)C(=O)N[C@@H](Cc1c[nH]cn1)C(=O)N[C@@H](CC(N)=O)C(=O)N[C@@H](CC(C)C)C(=O)NCC(=O)N[C@@H](CCCCN)C(=O)N[C@@H](Cc1c[nH]cn1)C(=O)N[C@@H](CC(C)C)C(=O)N[C@@H](CC(N)=O)C(=O)N[C@@H](CO)C(=O)N[C@@H](CCSC)C(=O)N[C@@H](CCCNC(=N)N)C(=O)N[C@@H](CCCNC(=N)N)C(=O)N[C@H](C(=O)N[C@@H](CC1CCCCC1)C(=O)N[C@@H](Cc1c[nH]c2ccccc12)C(=O)N[C@@H](CC(C)C)C(=O)N[C@@H](CCCNC(=N)N)C(=O)N[C@@H](CCCCN)C(=O)N[C@@H](CCCCN)C(=O)N[C@@H](CC(C)C)C(=O)N[C@@H](CCC(N)=O)C(=O)N[C@@H](CC(=O)O)C(=O)N[C@H](C(N)=O)C(C)C)C(C)C) [[Ala^1,Arg^19]hPTH(1-31)NH2 Glu^22→Cha]
≤ 6 fold	74 nM	564 nM	< 3 fold	AVSEIQLMHNLGKHLNSMRR[Cha]EWLRKKLQDV-NH2 (N-terminus assumed; SMILES CC[C@H](C)[C@H](NC(=O)[C@H](CCC(=O)O)NC(=O)[C@H](CO)NC(=O)[C@@H](NC(=O)[C@H](C)N)C(C)C)C(=O)N[C@@H](CCC(N)=O)C(=O)N[C@@H](CC(C)C)C(=O)N[C@@H](CCSC)C(=O)N[C@@H](Cc1c[nH]cn1)C(=O)N[C@@H](CC(N)=O)C(=O)N[C@@H](CC(C)C)C(=O)NCC(=O)N[C@@H](CCCCN)C(=O)N[C@@H](Cc1c[nH]cn1)C(=O)N[C@@H](CC(C)C)C(=O)N[C@@H](CC(N)=O)C(=O)N[C@@H](CO)C(=O)N[C@@H](CCSC)C(=O)N[C@@H](CCCNC(=N)N)C(=O)N[C@@H](CCCNC(=N)N)C(=O)N[C@@H](CC1CCCCC1)C(=O)N[C@@H](CCC(=O)O)C(=O)N[C@@H](Cc1c[nH]c2ccccc12)C(=O)N[C@@H](CC(C)C)C(=O)N[C@@H](CCCNC(=N)N)C(=O)N[C@@H](CCCCN)C(=O)N[C@@H](CCCCN)C(=O)N[C@@H](CC(C)C)C(=O)N[C@@H](CCC(N)=O)C(=O)N[C@@H](CC(=O)O)C(=O)N[C@H](C(N)=O)C(C)C) [[Ala^1,Arg^19]hPTH(1-31)NH2 Val^21→Cha]
